According to paper PMC3206016, “Putting into Practice Domain-Linear Motif Interaction Predictions for Exploration of Protein Networks” (PLoS ONE, 2011):
Read-outs that look alike come from different tables or passages of the source.

Key:
Test in all cases: SPR
[1] = target: 16E6L/V (C-terminal peptide of HPV16 early protein E6 with L158V) (human papilloma virus 16)
[2] = target: 16E6L/V (C-terminal peptide of HPV16 early protein E6 with L158V) (human papilloma virus 16); remark: listed apart in the source
[3] = target: 16E6L/V (C-terminal peptide of HPV16 early protein E6 with L158V) (human papilloma virus 16); remark: listed apart in the source
[4] = target: 16E6L/V (C-terminal peptide of HPV16 early protein E6 with L158V) (human papilloma virus 16); remark: listed apart in the source

SCRIB-3/4 (MBP fusion of the third of the four PDZ domains of SCRIB), sequence (Q14160 997-1093): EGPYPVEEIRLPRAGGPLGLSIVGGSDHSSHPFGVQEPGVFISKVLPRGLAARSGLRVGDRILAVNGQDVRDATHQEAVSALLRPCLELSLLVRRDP
MAGI1-3/6 (MBP fusion of the third of the six PDZ domains of MAGI1), sequence (Q6RHR9 613-752): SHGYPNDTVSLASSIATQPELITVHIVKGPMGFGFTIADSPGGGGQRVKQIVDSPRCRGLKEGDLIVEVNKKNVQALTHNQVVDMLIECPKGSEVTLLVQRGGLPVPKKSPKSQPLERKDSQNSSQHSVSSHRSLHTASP
MAGI1-2/6 (MBP fusion of the second of the six PDZ domains of MAGI1), sequence (Q6RHR9 448-572): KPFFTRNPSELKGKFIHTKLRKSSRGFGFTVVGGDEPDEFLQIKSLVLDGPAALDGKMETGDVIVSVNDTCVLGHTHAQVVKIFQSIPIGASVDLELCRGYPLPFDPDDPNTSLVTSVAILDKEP
SCRIB-34/4 (MBP fusion of the tandem of the third and fourth PDZ domains of SCRIB), sequence (Q14160 997-1193): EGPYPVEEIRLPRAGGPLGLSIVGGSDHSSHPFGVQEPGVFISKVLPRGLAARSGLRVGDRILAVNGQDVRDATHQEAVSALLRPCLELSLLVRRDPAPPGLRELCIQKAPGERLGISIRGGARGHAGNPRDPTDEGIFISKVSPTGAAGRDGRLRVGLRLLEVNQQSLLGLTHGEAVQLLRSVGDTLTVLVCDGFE

Substance | Kd [1] [µM] | Kd [2] [µM] | Kd [3] [µM] | Kd [4] [µM]
MAGI1-2/6 (MBP fusion of the second of the six PDZ domains of MAGI1) (from UniProt Q6RHR9-1 448-572) (domain or fragment) | 2 | 18 | 1 | 
MAGI1-3/6 (MBP fusion of the third of the six PDZ domains of MAGI1) (from UniProt Q6RHR9-1 613-752) (domain or fragment) | 69 | 76 | 202 | 
SCRIB-3/4 (MBP fusion of the third of the four PDZ domains of SCRIB) (from UniProt Q14160-1 997-1093) (domain or fragment) | 18 | 41 | 32 | 
SCRIB-34/4 (MBP fusion of the tandem of the third and fourth PDZ domains of SCRIB) (from UniProt Q14160-1 997-1193) (domain or fragment) | 3 |  |  | 4
